According to IntAct's records for PubMed 29688405:

What was measured:
frem2_human FREM2 = frem2_human FREM2 (UniProt Q5SZK8)
frem1_human FREM1 = frem1_human FREM1 (UniProt Q5H8C1)

UniProt Q5SZK8, sequence (Q5SZK8 whole entry): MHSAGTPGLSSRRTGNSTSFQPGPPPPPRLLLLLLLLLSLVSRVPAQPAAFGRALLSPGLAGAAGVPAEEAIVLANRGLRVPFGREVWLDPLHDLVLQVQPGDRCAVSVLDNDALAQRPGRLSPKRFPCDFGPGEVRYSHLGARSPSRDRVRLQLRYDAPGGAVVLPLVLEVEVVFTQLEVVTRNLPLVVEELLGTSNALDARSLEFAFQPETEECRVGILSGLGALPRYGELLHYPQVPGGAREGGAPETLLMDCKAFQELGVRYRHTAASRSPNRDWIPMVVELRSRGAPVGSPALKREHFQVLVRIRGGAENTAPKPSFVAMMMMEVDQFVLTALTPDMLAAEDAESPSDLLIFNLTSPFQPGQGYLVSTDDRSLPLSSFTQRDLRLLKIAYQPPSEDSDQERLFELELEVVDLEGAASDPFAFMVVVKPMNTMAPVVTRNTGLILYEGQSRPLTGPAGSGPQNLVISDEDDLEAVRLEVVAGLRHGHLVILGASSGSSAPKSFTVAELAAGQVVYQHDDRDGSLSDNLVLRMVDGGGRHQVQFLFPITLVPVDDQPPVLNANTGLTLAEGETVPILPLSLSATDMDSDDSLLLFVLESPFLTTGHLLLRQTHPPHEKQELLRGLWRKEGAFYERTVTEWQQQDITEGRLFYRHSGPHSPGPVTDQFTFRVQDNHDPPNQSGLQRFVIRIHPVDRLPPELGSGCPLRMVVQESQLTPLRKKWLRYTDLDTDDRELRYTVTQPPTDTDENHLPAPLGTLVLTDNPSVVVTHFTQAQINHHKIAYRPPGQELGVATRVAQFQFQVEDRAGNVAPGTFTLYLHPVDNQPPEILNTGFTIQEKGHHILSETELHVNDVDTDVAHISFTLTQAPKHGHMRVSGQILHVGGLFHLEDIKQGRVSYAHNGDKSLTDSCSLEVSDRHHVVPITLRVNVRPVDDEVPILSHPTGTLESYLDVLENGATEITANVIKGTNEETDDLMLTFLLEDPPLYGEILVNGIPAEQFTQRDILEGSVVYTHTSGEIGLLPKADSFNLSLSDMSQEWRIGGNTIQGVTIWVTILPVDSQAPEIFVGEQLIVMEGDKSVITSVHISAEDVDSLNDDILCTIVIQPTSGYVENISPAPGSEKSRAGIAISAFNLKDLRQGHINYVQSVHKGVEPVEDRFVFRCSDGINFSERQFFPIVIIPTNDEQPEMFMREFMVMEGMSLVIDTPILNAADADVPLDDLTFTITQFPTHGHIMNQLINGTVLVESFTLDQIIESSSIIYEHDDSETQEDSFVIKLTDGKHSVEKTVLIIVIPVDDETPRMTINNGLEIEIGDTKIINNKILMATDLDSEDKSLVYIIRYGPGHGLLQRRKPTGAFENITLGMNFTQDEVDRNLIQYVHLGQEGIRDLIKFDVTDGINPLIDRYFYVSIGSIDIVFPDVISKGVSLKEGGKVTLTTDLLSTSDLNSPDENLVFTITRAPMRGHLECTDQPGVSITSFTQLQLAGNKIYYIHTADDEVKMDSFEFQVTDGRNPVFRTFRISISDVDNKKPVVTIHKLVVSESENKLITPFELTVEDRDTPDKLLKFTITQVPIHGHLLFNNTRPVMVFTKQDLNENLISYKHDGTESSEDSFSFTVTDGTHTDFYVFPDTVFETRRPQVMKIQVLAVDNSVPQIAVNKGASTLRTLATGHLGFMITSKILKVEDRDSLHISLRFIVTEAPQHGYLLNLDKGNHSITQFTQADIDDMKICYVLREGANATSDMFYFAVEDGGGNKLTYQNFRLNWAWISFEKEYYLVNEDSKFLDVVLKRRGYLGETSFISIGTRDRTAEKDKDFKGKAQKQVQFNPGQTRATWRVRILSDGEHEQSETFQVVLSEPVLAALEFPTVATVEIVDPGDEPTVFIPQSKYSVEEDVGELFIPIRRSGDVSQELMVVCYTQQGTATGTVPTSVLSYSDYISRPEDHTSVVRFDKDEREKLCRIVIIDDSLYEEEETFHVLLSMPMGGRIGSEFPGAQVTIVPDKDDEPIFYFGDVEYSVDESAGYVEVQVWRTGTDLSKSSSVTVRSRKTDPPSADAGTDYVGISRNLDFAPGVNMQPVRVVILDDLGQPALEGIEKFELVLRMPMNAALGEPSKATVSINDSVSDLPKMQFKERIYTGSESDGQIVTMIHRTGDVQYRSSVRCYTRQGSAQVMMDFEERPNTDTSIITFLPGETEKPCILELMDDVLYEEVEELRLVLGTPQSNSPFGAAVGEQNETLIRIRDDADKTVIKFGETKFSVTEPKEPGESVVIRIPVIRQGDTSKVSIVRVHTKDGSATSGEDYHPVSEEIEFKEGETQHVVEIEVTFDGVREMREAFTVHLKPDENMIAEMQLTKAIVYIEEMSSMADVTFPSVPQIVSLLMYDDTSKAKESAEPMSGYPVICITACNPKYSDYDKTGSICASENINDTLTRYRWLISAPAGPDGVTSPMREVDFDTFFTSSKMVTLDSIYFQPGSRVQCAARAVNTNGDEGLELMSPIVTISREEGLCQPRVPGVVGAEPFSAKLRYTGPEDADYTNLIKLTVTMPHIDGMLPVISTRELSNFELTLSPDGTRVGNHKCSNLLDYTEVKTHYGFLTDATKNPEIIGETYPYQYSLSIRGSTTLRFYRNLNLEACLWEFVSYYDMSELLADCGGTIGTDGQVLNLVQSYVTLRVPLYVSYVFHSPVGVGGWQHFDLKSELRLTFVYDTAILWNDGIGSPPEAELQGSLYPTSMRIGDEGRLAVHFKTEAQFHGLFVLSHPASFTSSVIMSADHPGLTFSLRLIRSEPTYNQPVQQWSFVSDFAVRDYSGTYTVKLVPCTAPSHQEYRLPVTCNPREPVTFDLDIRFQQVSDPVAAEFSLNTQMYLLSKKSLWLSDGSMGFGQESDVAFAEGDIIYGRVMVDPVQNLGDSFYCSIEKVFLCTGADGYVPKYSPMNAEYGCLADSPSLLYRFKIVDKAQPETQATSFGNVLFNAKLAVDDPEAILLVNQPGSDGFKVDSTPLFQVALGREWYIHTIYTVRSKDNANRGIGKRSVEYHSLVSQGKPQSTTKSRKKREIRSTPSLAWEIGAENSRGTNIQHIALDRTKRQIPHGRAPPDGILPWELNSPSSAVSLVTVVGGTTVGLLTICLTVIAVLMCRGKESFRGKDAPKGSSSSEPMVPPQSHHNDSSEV

FRAS1-related extracellular matrix protein 1 (Homo sapiens), Q5H8C1 R649W
effect of a mutation on the interaction (frem2_human FREM2): disrupting interaction strength

FRAS1-related extracellular matrix protein 1 (Homo sapiens), Q5H8C1 L1324R
effect of a mutation on the interaction (frem2_human FREM2): disrupting interaction strength

FRAS1-related extracellular matrix protein 2 (Homo sapiens), Q5SZK8 R2167W
effect of a mutation on the interaction (frem1_human FREM1): decreasing interaction strength

FRAS1-related extracellular matrix protein 2 (Homo sapiens), Q5SZK8 E1972K
effect of a mutation on the interaction (frem1_human FREM1): disrupting interaction strength
